# From article PMC7855493 (Molecular cell, 2020)
# T1: yeast mitochondrial RNA polymerase ΔN100 (y-mtRNAP ΔN100) (S. cerevisiae, UniProt P13433 101-1351)
# T1 sequence (looked up): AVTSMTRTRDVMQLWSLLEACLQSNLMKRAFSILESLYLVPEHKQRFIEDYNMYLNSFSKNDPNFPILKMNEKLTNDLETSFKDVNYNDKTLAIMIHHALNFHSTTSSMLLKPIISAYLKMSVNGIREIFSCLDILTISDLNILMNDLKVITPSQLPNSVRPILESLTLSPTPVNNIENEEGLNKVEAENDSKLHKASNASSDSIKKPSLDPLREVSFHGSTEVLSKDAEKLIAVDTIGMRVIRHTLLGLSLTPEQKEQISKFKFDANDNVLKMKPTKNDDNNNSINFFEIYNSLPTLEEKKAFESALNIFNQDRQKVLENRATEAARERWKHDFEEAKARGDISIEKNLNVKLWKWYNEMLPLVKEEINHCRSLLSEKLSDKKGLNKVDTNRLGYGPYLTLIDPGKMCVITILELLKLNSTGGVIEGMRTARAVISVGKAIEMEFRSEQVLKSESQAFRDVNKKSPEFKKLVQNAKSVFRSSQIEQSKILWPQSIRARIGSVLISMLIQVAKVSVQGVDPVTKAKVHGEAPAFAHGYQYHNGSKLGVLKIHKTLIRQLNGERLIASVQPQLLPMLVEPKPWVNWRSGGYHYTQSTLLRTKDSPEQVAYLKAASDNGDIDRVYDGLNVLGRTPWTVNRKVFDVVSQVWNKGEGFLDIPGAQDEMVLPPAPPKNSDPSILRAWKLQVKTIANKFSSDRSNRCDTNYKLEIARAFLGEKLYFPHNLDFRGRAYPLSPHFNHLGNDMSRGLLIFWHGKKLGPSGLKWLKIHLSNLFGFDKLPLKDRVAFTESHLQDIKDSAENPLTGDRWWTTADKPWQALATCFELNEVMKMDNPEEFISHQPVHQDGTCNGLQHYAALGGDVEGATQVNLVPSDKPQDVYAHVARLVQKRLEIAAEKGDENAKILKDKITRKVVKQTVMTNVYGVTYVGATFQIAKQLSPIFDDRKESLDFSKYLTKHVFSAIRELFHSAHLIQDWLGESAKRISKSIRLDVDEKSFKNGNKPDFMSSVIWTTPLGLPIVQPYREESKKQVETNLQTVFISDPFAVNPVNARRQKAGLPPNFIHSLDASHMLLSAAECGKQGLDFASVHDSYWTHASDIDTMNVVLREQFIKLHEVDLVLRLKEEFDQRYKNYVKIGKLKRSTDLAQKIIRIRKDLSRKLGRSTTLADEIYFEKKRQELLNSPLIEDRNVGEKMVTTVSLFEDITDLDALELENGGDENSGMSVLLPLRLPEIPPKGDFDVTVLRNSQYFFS
# B1: MTF1 (yeast mitochondrial transcription factor), wild type (natural protein, S. cerevisiae)
# chain: SVPIPGIKDISKLKFFYGFKYLWNPTVYNKIFDKLDLTKTYKHPEELKVLDLYPGVGIQSAIFYNKYCPRQYSLLEKRSSLYKFLNAKFEGSPLQILKRDPYDWSTYSNLIDEERIFVPEVQSSDHINDKFLTVANVTGEGSEGLIMQWLSCIGNKNWLYRFGKVKMLLWMPSTTARKLLARPGMHSRSKCSVVREAFTDTKLIAISDANELKGFDSQCIEEWDPILFSAAEIWPTKGKPIALVEMDPIDFDFDVDNWDYVTRHLMILKRTPLNTVMDSLGHGGQQYFNSRITDKDLLKKCPIDLTNDEFIYLTKLFMEWPFKPDILMDFVDMYQTEHSG
# Target: T1, yeast mitochondrial RNA polymerase …
# Experiment: cryo-EM structure
binder,measurement,value
B1,binding result,binds
